Data on 1 molecule can be found in article PMC5477842 (Science (New York, N.Y.), 2016).

One series has as its target calmodulin (UniProt P0DP23 1-149). Put plainly: cryo-EM structure.
The series “cryo-EM structure” concerns the molecule itself. Nature of the series: cryo-EM structure.

One may read the stoichiometry N as a count of units in the complex or per binding partner.

B1: Truncated rat Eag1 (rEag1Δ; Kv10.1 with residues 773-886 removed) (natural protein, UniProt Q63472 1-962, looked up)
chain: MTMAGGRRGLVAPQNTFLENIVRRSNDTNFVLGNAQIVDWPIVYSNDGFCKLSGYHRAEVMQKSSACSFMYGELTDKDTVEKVRQTFENYEMNSFEILMYKKNRTPVWFFVKIAPIRNEQDKVVLFLCTFSDITAFKQPIEDDSCKGWGKFARLTRALTSSRGVLQQLAPSVQKGENVHKHSRLAEVLQLGSDILPQYKQEAPKTPPHIILHYCVFKTTWDWIILILTFYTAILVPYNVSFKTRQNNVAWLVVDSIVDVIFLVDIVLNFHTTFVGPAGEVISDPKLIRMNYLKTWFVIDLLSCLPYDVINAFENVDEGISSLFSSLKVVRLLRLGRVARKLDHYIEYGAAVLVLLVCVFGLAAHWMACIWYSIGDYEIFDEDTKTIRNNSWLYQLALDIGTPYQFNGSGSGKWEGGPSKNSVYISSLYFTMTSLTSVGFGNIAPSTDIEKIFAVAIMMIGSLLYATIFGNVTTIFQQMYANTNRYHEMLNSVRDFLKLYQVPKGLSERVMDYIVSTWSMSRGIDTEKVLQICPKDMRADICVHLNRKVFKEHPAFRLASDGCLRALAMEFQTVHCAPGDLIYHAGESVDSLCFVVSGSLEVIQDDEVVAILGKGDVFGDVFWKEATLAQSCANVRALTYCDLHVIKRDALQKVLEFYTAFSHSFSRNLILTYNLRKRIVFRKISDVKREEEERMKRKNEAPLILPPDHPVRRLFQRFRQQKEARLAAERGGRDLDDLDVEKGNALTDHTSANHSLVKASVVTVRESPATPVSFYPIPEQTLQATVLEVKHELKEDIKALNAKMTSIEKQLSEILRILMSRGSSQSPQDTCEVSRPQSPESDRDIFGAS
modifications: N-acetyl glucosamine on N388 (density observed); glycosylation sites N388 and N406
For B1, in the series with calmodulin, the binding result was “binds”. Besides, the “stoichiometry N” value in the series “cryo-EM structure” came to 4.
